This data set concerns the target TNFα (tumor necrosis factor alpha) (UniProt P01375 P01375:77-233). As to the kind of experiment: antibody-capture / aptamer-detection sandwich in ELISA wells, 5 nM aptamer, eluted at 95 C and counted by digital PCR; PBS, 0.05% Tween-20, 2.5 mM MgCl2, 1 mM CaCl2 wash; no numerical result in text. As to conditions: tags: Shenandoah Biotechnology 100-111; chain copies: 3 (inferred). As to the method:
The ELISA wells (Thermo Scientific, Catalog #: 15031) were functionalized with a TNFα antibody (eBioscience, Catalog #: 14-7349-85) at 5 μg/ml in PBS overnight at 4° C. Right before use, the ELISA wells were blocked with 300 μL AptaBuffer (PBS+0.05% Tween-20+2.5 mM MgCl₂+1 mM CaCl₂+1% BSA+0.5 mg/mL Dextran Sulfate+0.1 mg/mL Salmon Sperm DNA) with gentle shaking at ˜500 RPM for at least 30 minutes.
Next, test samples (50 μL) containing the protein of interest (TNFα, Shenandoah Biotechnology, Catalog #: 100-111) were added to the washed ELISA wells and incubated for 1 hour with gentle shaking After the target-capture incubation, the ELISA wells were washed once with PBSMCT (PBS+0.05% Tween-20+2.5 mM MgCl₂+1 mM CaCl₂) and 5 nM of the detection TNFα aptamer was added to the wells and incubated for 30 minutes with gentle shaking. The ELISA plate was then washed 4 times with 300 μl of PBS-MCT after the incubation with the detection aptamer. In an embodiment, the sequence of TNFα aptamer is 5′-[…] […]-3′.
For the elution step, 100 μL of PCR grade water was added to each ELISA well. After heating the plate at 95° C. for 10 minutes, we transfer the 100 μL of eluent containing the detection aptamers into a new tube. The eluents are diluted 10 fold before they are measured by the QuantStudio® 3D Digital PCR System from Life Technologies.

Sequence of TNFα (tumor necrosis factor alpha) (P01375 77-233, one chain of several): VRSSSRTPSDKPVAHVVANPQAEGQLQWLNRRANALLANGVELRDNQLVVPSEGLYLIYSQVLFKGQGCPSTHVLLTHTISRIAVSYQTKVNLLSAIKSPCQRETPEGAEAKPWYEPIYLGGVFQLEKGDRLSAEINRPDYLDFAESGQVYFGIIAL

B1: TNFα detection aptamer (ssDNA)
DNA: ATCCAGAGTGACGCAGCATGCTTAAGGGGGGGGCGGGTTAAGGGAGTGGGGAGGGAGCTGGTGTGGACACGGTGGCTTAGT
Regarding B1, the binding result is reported as “binds”.

For the origin of these results see patent publication US20160312265, “USE OF NUCLEIC ACID AGENTS FOR ULTRA-SENSITIVE DIGITAL DETECTION AND QUANTIFICATION OF TARGET MOLECULES” (Aptitude Medical Systems, Inc., published 2016).
